Reference: IntAct's records for PubMed 17641687

B1: Kinesin-like protein KIF16B (Homo sapiens), Q96L93 (parent)
chain: MASVKVAVRVRPMNRREKDLEAKFIIQMEKSKTTITNLKIPEGGTGDSGRERTKTFTYDFSFYSADTKSPDYVSQEMVFKTLGTDVVKSAFEGYNACVFAYGQTGSGKSYTMMGNSGDSGLIPRICEGLFSRINETTRWDEASFRTEVSYLEIYNERVRDLLRRKSSKTFNLRVREHPKEGPYVEDLSKHLVQNYGDVEELMDAGNINRTTAATGMNDVSSRSHAIFTIKFTQAKFDSEMPCETVSKIHLVDLAGSERADATGATGVRLKEGGNINKSLVTLGNVISALADLSQDAANTLAKKKQVFVPYRDSVLTWLLKDSLGGNSKTIMIATISPADVNYGETLSTLRYANRAKNIINKPTINEDANVKLIRELRAEIARLKTLLAQGNQIALLDSPTALSMEEKLQQNEARVQELTKEWTNKWNETQNILKEQTLALRKEGIGVVLDSELPHLIGIDDDLLSTGIILYHLKEGQTYVGRDDASTEQDIVLHGLDLESEHCIFENIGGTVTLIPLSGSQCSVNGVQIVEATHLNQGAVILLGRTNMFRFNHPKEAAKLREKRKSGLLSSFSLSMTDLSKSRENLSAVMLYNPGLEFERQQREELEKLESKRKLIEEMEEKQKSDKAELERMQQEVETQRKETEIVQLQIRKQEESLKRRSFHIENKLKDLLAEKEKFEEERLREQQEIELQKKRQEEETFLRVQEELQRLKELNNNEKAEKFQIFQELDQLQKEKDEQYAKLELEKKRLEEQEKEQVMLVAHLEEQLREKQEMIQLLRRGEVQWVEEEKRDLEGIRESLLRVKEARAGGDEDGEELEKAQLRFFEFKRRQLVKLVNLEKDLVQQKDILKKEVQEEQEILECLKCEHDKESRLLEKHDESVTDVTEVPQDFEKIKPVEYRLQYKERQLQYLLQNHLPTLLEEKQRAFEILDRGPLSLDNTLYQVEKEMEEKEEQLAQYQANANQLQKLQATFEFTANIARQEEKVRKKEKEILESREKQQREALERALARLERRHSALQRHSTLGMEIEEQRQKLASLNSGSREQSGLQASLEAEQEALEKDQERLEYEIQQLKQKIYEVDGVQKDHHGTLEGKVASSSLPVSAEKSHLVPLMDARINAYIEEEVQRRLQDLHRVISEGCSTSADTMKDNEKLHNGTIQRKLKYERMVSRSLGANPDDLKDPIKISIPRYVLCGQGKDAHFEFEVKITVLDETWTVFRRYSRFREMHKTLKLKYAELAALEFPPKKLFGNKDERVIAERRSHLEKYLRDFFSVMLQSATSPLHINKVGLTLSKHTICEFSPFFKKGVFDYSSHGTG

Variants of: B1
Details: with eea1_human EEA1, Q15075
eea1_human EEA1, Q15075, sequence (Q15075 whole entry): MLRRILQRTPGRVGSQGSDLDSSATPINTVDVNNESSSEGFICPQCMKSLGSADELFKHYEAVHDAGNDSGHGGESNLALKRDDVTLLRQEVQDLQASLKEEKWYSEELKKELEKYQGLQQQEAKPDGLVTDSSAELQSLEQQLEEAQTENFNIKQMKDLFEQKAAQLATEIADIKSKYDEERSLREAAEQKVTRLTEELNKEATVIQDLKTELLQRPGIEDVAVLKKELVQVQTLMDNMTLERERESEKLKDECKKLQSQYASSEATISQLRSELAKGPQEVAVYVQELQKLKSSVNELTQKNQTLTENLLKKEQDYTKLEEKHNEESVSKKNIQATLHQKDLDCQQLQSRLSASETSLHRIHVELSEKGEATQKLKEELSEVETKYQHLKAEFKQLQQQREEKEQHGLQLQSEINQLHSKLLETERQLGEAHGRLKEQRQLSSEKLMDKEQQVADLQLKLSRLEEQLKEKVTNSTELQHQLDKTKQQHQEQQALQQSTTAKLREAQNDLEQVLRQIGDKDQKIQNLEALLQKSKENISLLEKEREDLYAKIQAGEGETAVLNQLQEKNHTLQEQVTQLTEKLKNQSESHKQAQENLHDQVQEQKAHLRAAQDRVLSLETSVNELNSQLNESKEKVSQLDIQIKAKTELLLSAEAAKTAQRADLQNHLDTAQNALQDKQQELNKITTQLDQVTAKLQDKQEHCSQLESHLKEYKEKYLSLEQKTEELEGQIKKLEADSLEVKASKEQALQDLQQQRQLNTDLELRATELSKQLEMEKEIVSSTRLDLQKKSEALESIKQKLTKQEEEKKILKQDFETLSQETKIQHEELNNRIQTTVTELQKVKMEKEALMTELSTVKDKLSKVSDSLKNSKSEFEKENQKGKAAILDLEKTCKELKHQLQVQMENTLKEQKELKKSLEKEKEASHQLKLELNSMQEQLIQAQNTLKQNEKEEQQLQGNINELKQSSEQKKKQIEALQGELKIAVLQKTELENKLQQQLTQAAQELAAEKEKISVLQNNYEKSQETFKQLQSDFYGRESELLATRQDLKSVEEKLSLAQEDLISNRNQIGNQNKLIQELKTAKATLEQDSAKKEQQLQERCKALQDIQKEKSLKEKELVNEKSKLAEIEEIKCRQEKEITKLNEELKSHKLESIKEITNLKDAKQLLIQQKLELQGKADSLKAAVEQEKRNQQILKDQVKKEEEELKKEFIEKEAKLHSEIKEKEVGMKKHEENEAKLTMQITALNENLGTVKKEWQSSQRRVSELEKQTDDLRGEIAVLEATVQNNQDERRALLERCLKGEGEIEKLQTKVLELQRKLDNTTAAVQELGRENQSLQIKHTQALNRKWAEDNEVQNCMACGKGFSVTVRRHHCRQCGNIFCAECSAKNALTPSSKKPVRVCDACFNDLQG

Variant | effect of a mutation on the interaction
L1248A | disrupting interaction
F1249A | disrupting interaction
